Reference: PMC6533264 (Scientific Reports, 2019)
Residue numbers refer to the chain shown, from its start.

B1: 4R34.1.19, human IgG1 (antibody, V domains shown)
VH: EVQLLESGGGLVQPGGSLRLSCAASGFTFSRHAMAWVRQAPGKGLEWVSAITSSGRSIYYADSVKGRFTISRDNSKNTLYLQMNSLRAEDTAVYYCARVHRAFDYWGQGTLVTVSS
VL: QSVLTQPPSASGTPGQRVTISCSGSPLFPDSGSFNWYQQLPGTAPKLLIYADSHRPSGVPDRFSGSKSGTSASLAISGLRSEDEADYYCGTWDYSLSGYVLGGGTKLTVL
B2: 4R34, human IgG1 (antibody, V domains shown)
VH: B1 VH with R31N, H32Y, A35S, T52S, S54G, R56G, S57N
VL: B1 VL with P26S, L27S, F28N, P29I, D30G, G32N, S33T
B3: 4R34.1.11, human IgG1 (antibody, V domains shown)
VH: B1 VH with R31N, H32Y, A35S
VL: B1 VL with P26S, L27A, F28N, P29S, D30R, S31T, G32D, S33G, S97R
B4: 4R34.29, human IgG1 (antibody, V domains shown)
VH: B1 VH with R31N, H32Y, A35S, S53A, S54G, R56G
VL: B1 VL with P26S, L27S, F28N, P29I, D30G, G32N, S33T
B5: 4R34.1, human IgG1 (antibody, V domains shown)
VH: B1 VH with R31N, H32Y, A35S
VL: B1 VL with P26S, L27S, F28N, P29I, D30G, G32N, S33T
B6: 4R34.1.13, human IgG1 (antibody, V domains shown)
VH: B1 VH with R31N, H32Y, A35S
VL: B1 VL with P26A, L27Q, P29G, D30S, S31R, G32D, S33N, S97R
B7: 4R34.19, human IgG1 (antibody, V domains shown)
VH: B1 VH with R31N, H32Y, A35S, R56G, S57N
VL: B1 VL with P26S, L27S, F28N, P29I, D30G, G32N, S33T, T91Y
B8: 4R34.2, human IgG1 (antibody, V domains shown)
VH: B1 VH with R31N, H32Y, A35S, R56A, S57N
VL: B1 VL with P26S, L27S, F28N, P29I, D30G, G32N, S33T, S97R
B9: 4R34.1.21, human IgG1 (antibody, V domains shown)
VH: B1 VH with R31N, H32Y, A35S
VL: B1 VL with P26A, L27A, F28L, P29D, D30L, G32P
B10: 4R34.1.17, human IgG1 (antibody, V domains shown)
VH: B1 VH with R31N, H32Y, A35S
VL: B1 VL with P26T, L27K, F28Q, P29M, D30H, S31N, G32Y, S33Q
B11: 4R34.1.18, human IgG1 (antibody, V domains shown)
VH: B1 VH with R31N, H32Y, A35S
VL: B1 VL with P26L, F28R, P29G, D30E, S31N, G32L, S33Q, S97R

Each molecule was assayed against T1, insulin (Homo sapiens (assumed), UniProt P01308) (assay: ELISA; non-specificity ELISA: hemocyanin (150 ng/well) and insulin (150 ng/well) coated (also dsDNA and cardiolipin)). Conditions: both partners purified.
T1 construct: insulin B chain; insulin A chain; Polyreactivity antigen; source: bought: Sigma, I9278
T1 sequence (P01308 whole entry, looked up): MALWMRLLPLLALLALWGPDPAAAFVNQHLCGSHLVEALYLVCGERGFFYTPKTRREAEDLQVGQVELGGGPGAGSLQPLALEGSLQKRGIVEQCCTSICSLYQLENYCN

Molecule	binding result
B1	no binding

These molecules were tested against T2, extracellular domain of human IL-4Rα (residues 26–232), C-terminal 6× His (human, UniProt P24394) (assay: BLI; OctetRED96; Ab (1 μg/mL) captured on anti-human IgG Fc capture (AHC) biosensors at low density (0.6 to 0.8 nm), soluble monomeric IL-4Rα as analyte; 25 °C, PBS pH 7.4, 0.02% Tween 20; association 300 s, dissociation 600-900 s; 1:1 binding model). Conditions: both partners purified.
T2 construct: human interleukin-4 receptor alpha subunit, extracellular domain, residues 26-232; Subcloned into the pSecTag2A vector; N-glycosylated (~45 kDa, ~26 kDa after PNGase F); also called wild-type IL-4Rα; soluble IL-4Rα; source: HEK293F, transiently transfected, purified (Ni-NTA); not shown: His6, C-terminal, kept
T2 sequence (P24394 26-232): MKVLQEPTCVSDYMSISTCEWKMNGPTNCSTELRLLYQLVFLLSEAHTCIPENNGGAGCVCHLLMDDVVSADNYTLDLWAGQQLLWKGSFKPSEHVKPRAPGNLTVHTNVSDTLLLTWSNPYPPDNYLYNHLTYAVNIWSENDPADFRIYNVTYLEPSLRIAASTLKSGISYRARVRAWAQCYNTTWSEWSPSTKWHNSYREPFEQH

Molecule	Kd [nM]	koff [s⁻¹]	kon [M⁻¹ s⁻¹]
B2	1.04	0.00361	3.47e+06
B3	0.21	0.000968	4.62e+06
B4	0.716	0.00371	5.18e+06
B5	0.401	0.00172	4.28e+06
B6	0.208	0.00107	5.12e+06
B1	0.178	0.000877	4.93e+06
B7	0.532	0.00243	4.58e+06
B8	0.853	0.00401	4.7e+06
B9	0.228	0.00106	4.63e+06
B10	0.179	0.000879	4.92e+06
B11	0.29	0.00175	6.05e+06

What follows are molecules tested against Dupilumab analogue (assay: ELISA). Conditions: dupilumab analogue 100 pM; read off a plot.

Molecule	percent of parent [%]
extracellular domain of human IL-4Rα (residues 26–232), C-terminal 6× His (from UniProt P24394) D97A	73
extracellular domain of human IL-4Rα (residues 26–232), C-terminal 6× His (from UniProt P24394) Y208A	100
extracellular domain of human IL-4Rα (residues 26–232), C-terminal 6× His (from UniProt P24394) Y38A	120
extracellular domain of human IL-4Rα (residues 26–232), C-terminal 6× His (from UniProt P24394) V93A	76
extracellular domain of human IL-4Rα (residues 26–232), C-terminal 6× His (from UniProt P24394) S95A	100
extracellular domain of human IL-4Rα (residues 26–232), C-terminal 6× His (from UniProt P24394) D92A	100
extracellular domain of human IL-4Rα (residues 26–232), C-terminal 6× His (from UniProt P24394) L67A	100
extracellular domain of human IL-4Rα (residues 26–232), C-terminal 6× His (from UniProt P24394) L68A	97
